Data from publication PMC9045202.

Target: EFG displayed on the surface of E. coli BL21 as a fusion with InaZN and mCherry (BL21-pEImC-EFG) (Escherichia coli (ExPEC strain RS218)) (UniProt P0A6M8)
Assay: fluorescence intensity of labelled ligand bound to bacteria, competition; BL21-pEImC-EFG incubated with a mixture of fluor-TF (20 μg/mL) and an excess of unlabeled holo-TF; fluorescence of 10^7 bacterial cells, excitation 485 nm, emission 535 nm

UniProt P0A6M8, sequence (P0A6M8 whole entry, the tested form may be a part): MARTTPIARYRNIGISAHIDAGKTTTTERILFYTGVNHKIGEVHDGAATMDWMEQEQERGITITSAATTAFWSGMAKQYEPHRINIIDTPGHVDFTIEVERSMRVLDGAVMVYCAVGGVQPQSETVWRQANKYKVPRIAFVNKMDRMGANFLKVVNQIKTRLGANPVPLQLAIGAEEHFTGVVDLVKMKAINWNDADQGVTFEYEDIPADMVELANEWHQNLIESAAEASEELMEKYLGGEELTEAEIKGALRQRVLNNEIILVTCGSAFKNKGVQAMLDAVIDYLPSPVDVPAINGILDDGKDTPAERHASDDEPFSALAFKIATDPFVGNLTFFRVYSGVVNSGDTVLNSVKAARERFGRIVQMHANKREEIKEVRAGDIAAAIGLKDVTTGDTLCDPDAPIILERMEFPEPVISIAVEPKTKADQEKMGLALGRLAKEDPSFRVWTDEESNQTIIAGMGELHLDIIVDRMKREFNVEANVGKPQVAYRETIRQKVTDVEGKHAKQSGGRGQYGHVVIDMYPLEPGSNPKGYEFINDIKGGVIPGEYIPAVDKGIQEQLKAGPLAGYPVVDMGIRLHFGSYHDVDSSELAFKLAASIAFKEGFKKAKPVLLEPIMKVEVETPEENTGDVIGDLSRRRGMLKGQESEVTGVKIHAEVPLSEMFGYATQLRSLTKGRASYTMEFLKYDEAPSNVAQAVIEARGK

**Q.** For “holo-transferrin (iron-saturated holo-TF), unlabeled (from UniProt P02787 20-698) (natural protein)”, which fluorescence intensity of bound fluor-TF with an excess of unlabeled holo-TF is on record?
**A.** Its fluorescence intensity of bound fluor-TF with an excess of unlabeled holo-TF is 76.4%.
